Source: patent US20260250421A1 (BIOCYTOGEN PHARMACEUTICALS BEIJING, published 2026)

How the values were obtained:
[1] = target: T1, His-tagged dog PTK7 protein (dog, UniProt Q13308 31-703 (human entry)); test: SPR Biacore 8K, Ab on Protein A chip
T1 construct: also called dPTK7-His
T1 chain: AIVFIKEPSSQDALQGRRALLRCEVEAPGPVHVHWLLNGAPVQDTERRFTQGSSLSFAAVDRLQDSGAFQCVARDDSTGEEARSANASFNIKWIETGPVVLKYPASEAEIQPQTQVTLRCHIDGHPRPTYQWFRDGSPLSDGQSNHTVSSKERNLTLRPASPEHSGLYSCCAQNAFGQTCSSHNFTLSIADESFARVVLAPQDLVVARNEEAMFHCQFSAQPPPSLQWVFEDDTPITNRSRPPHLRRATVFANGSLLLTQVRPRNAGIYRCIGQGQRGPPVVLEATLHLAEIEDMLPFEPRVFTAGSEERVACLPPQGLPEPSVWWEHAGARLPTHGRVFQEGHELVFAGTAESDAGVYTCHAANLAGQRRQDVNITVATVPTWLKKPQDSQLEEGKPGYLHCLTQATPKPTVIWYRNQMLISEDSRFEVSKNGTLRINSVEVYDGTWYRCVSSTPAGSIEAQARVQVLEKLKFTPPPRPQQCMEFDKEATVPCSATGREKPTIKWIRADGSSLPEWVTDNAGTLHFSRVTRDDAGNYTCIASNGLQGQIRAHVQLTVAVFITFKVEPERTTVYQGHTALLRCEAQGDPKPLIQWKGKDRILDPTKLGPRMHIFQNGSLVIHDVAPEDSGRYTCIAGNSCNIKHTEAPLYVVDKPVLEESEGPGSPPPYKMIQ
Description: The affinity of the anti-PTK7/TROP2 bispecific antibodies to His-tagged human TROP2 protein (hTROP2-His, ACRO Biosystems Inc., Cat #: TR2-H5223), His-tagged […] monkey TROP2 protein (cTROP2-His, ACRO Biosystems Inc., Cat #: Cat: TR2-R52H3), His-tagged dog TROP2 protein (dTROP2-His, ACRO Biosystems Inc., Cat #: TR2-C52H4), hPTK7-His, cPTK7-His and dPTK7-His were measured by surface plasmon resonance (SPR) using Biacore™ (Biacore, INC, Piscataway N.J.) 8K biosensor equipped with pre-immobilized Protein A sensor chips.

[2] = target: T2, human PTK7 on human cancer cell lines (human, UniProt Q13308 31-1070); test: flow cytometry on NCI-H1975 cells co-expressing PTK7 and TROP2; the single curve of the bispecific is not resolved between the two targets; anti-hIgG-Fc Alexa Fluor 647 secondary antibody, MFI [A]
T2 construct: Endogenous PTK7 of human tumour cell lines; also called PTK7 on A-431, NCI-H520, NCI-N87, SK-OV-3, BT-20, HCC1954, NCI-H226, NCI-H358, HCT116, PC-3, NCI-H292, NCI-H1975 cells
T2 sequence: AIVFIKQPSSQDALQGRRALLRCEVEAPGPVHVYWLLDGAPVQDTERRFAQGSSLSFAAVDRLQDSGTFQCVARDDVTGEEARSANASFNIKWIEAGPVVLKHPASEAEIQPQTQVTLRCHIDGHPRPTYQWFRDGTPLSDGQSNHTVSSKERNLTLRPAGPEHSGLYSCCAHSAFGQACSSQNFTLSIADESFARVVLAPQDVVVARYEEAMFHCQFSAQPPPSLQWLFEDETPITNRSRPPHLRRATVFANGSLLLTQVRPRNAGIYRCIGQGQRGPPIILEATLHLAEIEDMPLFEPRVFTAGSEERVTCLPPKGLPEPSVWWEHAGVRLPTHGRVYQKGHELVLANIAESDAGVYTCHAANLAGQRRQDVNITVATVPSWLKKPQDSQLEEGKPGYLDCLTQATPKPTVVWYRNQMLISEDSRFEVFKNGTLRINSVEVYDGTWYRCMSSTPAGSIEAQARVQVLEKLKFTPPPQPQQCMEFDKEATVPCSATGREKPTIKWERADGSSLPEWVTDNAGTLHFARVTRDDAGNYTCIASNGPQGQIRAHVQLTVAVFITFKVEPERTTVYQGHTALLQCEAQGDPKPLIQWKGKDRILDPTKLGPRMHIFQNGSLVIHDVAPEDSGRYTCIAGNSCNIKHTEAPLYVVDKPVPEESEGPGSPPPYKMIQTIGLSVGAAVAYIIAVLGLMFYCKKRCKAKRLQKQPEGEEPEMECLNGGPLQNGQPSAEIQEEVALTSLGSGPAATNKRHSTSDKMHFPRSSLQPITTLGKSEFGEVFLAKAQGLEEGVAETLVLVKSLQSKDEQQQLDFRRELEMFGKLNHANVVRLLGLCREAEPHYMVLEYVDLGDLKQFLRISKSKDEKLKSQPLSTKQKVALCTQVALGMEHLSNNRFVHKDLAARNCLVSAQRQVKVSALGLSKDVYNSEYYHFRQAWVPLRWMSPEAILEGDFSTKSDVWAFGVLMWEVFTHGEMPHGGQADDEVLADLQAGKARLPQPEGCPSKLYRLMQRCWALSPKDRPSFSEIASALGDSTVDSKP
Description: (§1) This experiment was performed to test the binding activities of the anti-PTK7/TROP2 bispecific antibodies to different tumor cell lines. NCI-H1975 cells or NUGC-4 cells were transferred to a 96-well plate at a density of 5×10⁴ cells/well respectively. The sample antibody was added to the 96-well plate, and incubated at 4° C. for 30 min.

[3] = target: T3, TROP2 on NCI-H1975 and NUGC-4 tumor cells (UniProt P09758 27-323, limits assumed); test: as above
T3 construct: whole, on cells; species of the lines is not worded there; also called TROP2 on cells
T3 sequence (looked up): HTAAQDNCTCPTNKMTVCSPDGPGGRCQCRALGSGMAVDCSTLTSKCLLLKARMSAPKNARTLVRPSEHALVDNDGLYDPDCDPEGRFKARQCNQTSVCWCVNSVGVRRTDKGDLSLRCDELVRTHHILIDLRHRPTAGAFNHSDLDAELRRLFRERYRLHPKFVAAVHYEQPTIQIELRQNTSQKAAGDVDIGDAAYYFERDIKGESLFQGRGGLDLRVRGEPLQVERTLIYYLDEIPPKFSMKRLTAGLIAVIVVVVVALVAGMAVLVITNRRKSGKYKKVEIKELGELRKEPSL
Description: as §1

Kd [1]: 38.9 nM
koff [1]: 0.00449 s⁻¹
kon [1]: 115000 M⁻¹ s⁻¹
EC50 (read off the curve) [2]: ~0.7 µg/mL
EC50 (read off the curve) [3]: ~0.7 µg/mL
B1: 3C4-18E9 (bispecific antibody, human IgG1, V domains shown)
VH 1: QVQLEQSRAEVKKPGESLRISCKGSGYSFTSYWISWVRQMPGKGLEWMGRIDPSDSYTNYNPSFQGHVTISADKSISTAYLQWSSLKASDTAMYYCARRDGSYFDFDYWGQGTLVTVSS
VH 2: QLQLQQSGPGLLKPSETLSLTCTVSGGSISSSYYFWGWIRQPPGKGLEWIGAIYYIGNTHYNPSLKSRVTISIDTSKNQFSLNLNSVTAADTAIYYCARYEDTWNWFDPWGQGTLVTVSS
VL: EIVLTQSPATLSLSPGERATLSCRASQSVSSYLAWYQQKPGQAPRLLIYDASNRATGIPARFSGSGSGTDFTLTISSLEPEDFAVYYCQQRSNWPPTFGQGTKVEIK
notes: which arm carries the knob is stated only for 3C4-6F7; also called anti-PTK7/TROP2 bispecific antibody 3C4-18E9
